The assay concerns the target T1, HLA-B*44:02 (human).
T1 construct: Peptide-receptive MHC class I monomer made by UV cleavage of a UV-sensitive ligand
In words: UV ligand exchange ELISA; exchange yield grade. The text has this: Candidate peptides for T cell based therapies according to the present invention were further tested for their MHC binding capacity (affinity). The individual peptide-MHC complexes were produced by UV-ligand exchange, where a UV-sensitive peptide is cleaved upon UV-irradiation, and exchanged with the peptide of interest as analyzed. Only peptide candidates that can effectively bind and stabilize the peptide-receptive MHC molecules prevent dissociation of the MHC complexes. To determine the yield of the exchange reaction, an ELISA was performed based on the detection of the light chain (β2m) of stabilized MHC complexes. The assay was performed as generally described in Rodenko et al. (Rodenko et al., 2006).
96 well MAXISorp plates (NUNC) were coated over night with 2 ug/ml streptavidin in PBS at room temperature, washed 4× and blocked for 1 h at 37° C. in 2% BSA containing blocking buffer. Refolded HLA-A*02:01/MLA-001 monomers served as standards, covering the range of 15-500 ng/ml. Peptide-MHC monomers of the UV-exchange reaction were diluted 100-fold in blocking buffer. Samples were incubated for 1 h at 37° C., washed four times, incubated with 2 ug/ml HRP conjugated anti-β2m for 1 h at 37° C., washed again and detected with TMB solution that is stopped with […]. Absorption was measured at 450 nm. Candidate peptides that show a high exchange yield (preferably higher than 50%, most preferred higher than 75%) are generally preferred for a generation and production of antibodies or fragments thereof, and/or T cell receptors or fragments thereof, as they show sufficient avidity to the MHC molecules and prevent dissociation of the MHC complexes.

Where only a bound is given, the exact number is not on record here.

In turn, GELPAVRDL registered a peptide exchange yield of 20 to 50%. As for KEIGAAVQAL, the figure is 50 to 75%; as for SQAPAARAF, 20 to 50%; as for EENPGKFLF, 50 to 75%. Turning to SESTFDRTF, the peptide exchange yield was 50 to 75%. For the molecule REYNEYENI, the peptide exchange yield is 20 to 50%. Take GENEDNRIGL: the peptide exchange yield fell in the range of 20 to 50%. The molecule YEYDLKWEF displayed a peptide exchange yield of 50 to 75%. As for EEWMGLLEY, the peptide exchange yield was > 75%.

TEGKRYFTW: the peptide exchange yield fell in the range of 50 to 75%.

For EVDASIFKAW, the peptide exchange yield is 20 to 50%. Molecule SESKTVVTY displayed a peptide exchange yield of 50 to 75%.

Consider AEYKGRVTL, for which the peptide exchange yield is > 75%. With AQNLSIIQY, the peptide exchange yield is 20 to 50%.

HEIDGKALFL yielded a peptide exchange yield of 20 to 50%.

As for AELLAKELY, the peptide exchange yield is 20 to 50%. In turn, GENDRLNHTY gave a peptide exchange yield of 20 to 50%. For the molecule EENGEVKEL, the peptide exchange yield is 20 to 50%. EEFETIERF returned a peptide exchange yield of 20 to 50%.

For the molecule DEAQARAAF, the peptide exchange yield lay within 20 to 50%. The molecule AEPGPVITW showed a peptide exchange yield of 50 to 75%. Molecule VELDLQRSV returned a peptide exchange yield of 20 to 50%.

In turn, EEGDTLLHLF yielded a peptide exchange yield of 50 to 75%. Turning to SESLPKEAF, the peptide exchange yield was 20 to 50%.

In turn, KEVPRSYEL yielded a peptide exchange yield of 20 to 50%. SEYSHLTRV yielded a peptide exchange yield of 20 to 50%. With REYEYDLKWEF, the peptide exchange yield fell in the range of 50 to 75%. As to TDKSFPNAY, the peptide exchange yield is 10 to 20%. In the case of KELPGVKKY, the peptide exchange yield fell in the range of 20 to 50%. GEIKEPLEI showed a peptide exchange yield of 20 to 50%. The figure for EEETILHFF is 20 to 50%. As for SEYADTHYF, the figure is 50 to 75%.

In turn, EENKPGIVY registered a peptide exchange yield of 20 to 50%. Molecule TEYPVFVY came in with a peptide exchange yield of 10 to 20%. As to KEFEQVPGHL, the peptide exchange yield lay in the range of 20 to 50%. As for EYDLKWEF, the figure is 20 to 50%; as for RENQVLGSGW, 50 to 75%. Regarding GELLGRQSF, the peptide exchange yield was in the range of 50 to 75%. AEPLVGQRW gave a peptide exchange yield of 50 to 75%. The figure for AEIKQTEEKY is 20 to 50%. QEIQSLLTNW yielded a peptide exchange yield of 50 to 75%. Molecule KEYDFGTQL returned a peptide exchange yield of 20 to 50%. For the molecule QENMQIQSF, the peptide exchange yield is 50 to 75%.

With GEGAYGKVF, the peptide exchange yield was > 75%. SEKETVAYF displayed a peptide exchange yield of 50 to 75%. The figure for NEVLASKY is 10 to 20%; for VEDGLFHEF it is 50 to 75%. As for EEPAFNVSY, the figure is 20 to 50%.

GELGGSVTI returned a peptide exchange yield of 50 to 75%. Regarding SENEQRRMF, the peptide exchange yield lay in the range of 50 to 75%.

The molecule AENAVSNLSF displayed a peptide exchange yield of 20 to 50%. In turn, SEDLAVHLY had a peptide exchange yield of 20 to 50%. Molecule NEFPVIVRL had a peptide exchange yield of 50 to 75%. The molecule REYEHYWTEL registered a peptide exchange yield of 50 to 75%.

Regarding VEIAEAIQL, the peptide exchange yield was 50 to 75%. As for TEIFKEHNF, the figure is 20 to 50%.

Molecule EEEHGKGREY gave a peptide exchange yield of 20 to 50%.

Molecule EEVTDRSQL showed a peptide exchange yield of 20 to 50%. The molecule AEHNFVAKA showed a peptide exchange yield of 50 to 75%. As for NEIKVYITF, the peptide exchange yield was 50 to 75%. FEVESLFQKY yielded a peptide exchange yield of 50 to 75%.

The values above are taken from patent US20180291083A1 (IMMATICS BIOTECHNOLOGIES, published 2018).
